The results in this text go back to paper PMC3328451, “Mycobacterium tuberculosis Rv3586 (DacA) Is a Diadenylate Cyclase That Converts ATP or ADP into c-di-AMP” (PLoS ONE, 2012).

One may read the stoichiometry N as a count of units in the complex or per binding partner.

The data set “SEC” concerns the molecule itself. Description: SEC.
Data set [1] concerns the molecule itself. As to the kind of experiment: cross-linking; 1.5 µM protein in 50 mM sodium phosphate pH 7.4, 20% glycerol, 5 mM MgCl2, with 35 mM glutaraldehyde for 1 h at room temperature; SDS-PAGE and Western blot with the anti-DacA antibody. In general terms: In western blotting, separated proteins are transferred to a membrane and probed.
Data set [2] concerns the molecule itself. Description: AUC; sedimentation velocity, 4°C, 10% glycerol in PBS; DacA and DacA_(1–287) at 40 000 rpm, DacA_(140–358) at 50 000 rpm; mass by the c(M) method in SEDFIT.

B1: Mycobacterium tuberculosis Rv3586 (DacA) (enzyme)
chain: MHAVTRPTLREAVARLAPGTGLRDGLERILRGRTGALIVLGHDENVEAICDGGFSLDVRYAATRLRELCKMDGAVVLSTDGSRIVRANVQLVPDPSIPTDESGTRHRSAERAAIQTGYPVISVSHSMNIVTVYVRGERHVLTDSATILSRANQAIATLERYKTRLDEVSRQLSRAEIEDFVTLRDVMTVVQRLELVRRIGLVIDYDVVELGTDGRQLRLQLDELLGGNDTARELIVRDYHANPEPPSTGQINATLDELDALSDGDLLDFTALAKVFGYPTTTEAQDSTLSPRGYRAMAGIPRLQFAHADLLVRAFGTLQGLLAASAGDLQSVDGIGAMWARHVREGLSQLAESTISDQ
notes: also called native DacA; not shown: His tag, C-terminal, kept
For the protein B1, the “stoichiometry N” value in the data set “SEC” worked out at 8.

B2: DacA_(140–358) (domain or fragment)
chain: VLTDSATILSRANQAIATLERYKTRLDEVSRQLSRAEIEDFVTLRDVMTVVQRLELVRRIGLVIDYDVVELGTDGRQLRLQLDELLGGNDTARELIVRDYHANPEPPSTGQINATLDELDALSDGDLLDFTALAKVFGYPTTTEAQDSTLSPRGYRAMAGIPRLQFAHADLLVRAFGTLQGLLAASAGDLQSVDGIGAMWARHVREGLSQLAESTISDQ
notes: also called last 219 aa of DacA; DacA lacking the N-terminal Dac domain
For the protein B2, the “stoichiometry N” value in data set [1] turned out to be 2.

B3: DacA_(1–287) (domain or fragment)
chain: MHAVTRPTLREAVARLAPGTGLRDGLERILRGRTGALIVLGHDENVEAICDGGFSLDVRYAATRLRELCKMDGAVVLSTDGSRIVRANVQLVPDPSIPTDESGTRHRSAERAAIQTGYPVISVSHSMNIVTVYVRGERHVLTDSATILSRANQAIATLERYKTRLDEVSRQLSRAEIEDFVTLRDVMTVVQRLELVRRIGLVIDYDVVELGTDGRQLRLQLDELLGGNDTARELIVRDYHANPEPPSTGQINATLDELDALSDGDLLDFTALAKVFGYPTTTEAQDS
notes: also called first 287 aa of DacA; DacA lacking the C-terminal HhH domain
As to B3, the “stoichiometry N” value in data set [2] amounted to 4.
